Experimental data: paper PMC4145800

Molecular target: T1, wild-type (polymerization-competent) yeast αβ-tubulin, P09733;P02557
T1 chain 1: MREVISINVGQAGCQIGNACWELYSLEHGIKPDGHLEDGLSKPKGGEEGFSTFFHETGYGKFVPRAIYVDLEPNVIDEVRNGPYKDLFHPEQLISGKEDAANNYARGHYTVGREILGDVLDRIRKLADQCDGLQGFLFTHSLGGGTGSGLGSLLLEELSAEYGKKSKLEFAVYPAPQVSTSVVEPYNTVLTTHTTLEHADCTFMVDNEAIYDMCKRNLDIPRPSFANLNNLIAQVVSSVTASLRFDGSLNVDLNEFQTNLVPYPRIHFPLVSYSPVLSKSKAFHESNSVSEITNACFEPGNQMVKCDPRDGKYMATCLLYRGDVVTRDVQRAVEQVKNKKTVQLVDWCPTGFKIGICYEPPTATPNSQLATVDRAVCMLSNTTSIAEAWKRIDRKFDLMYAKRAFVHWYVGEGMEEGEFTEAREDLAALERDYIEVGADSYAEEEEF
T1 chain 2: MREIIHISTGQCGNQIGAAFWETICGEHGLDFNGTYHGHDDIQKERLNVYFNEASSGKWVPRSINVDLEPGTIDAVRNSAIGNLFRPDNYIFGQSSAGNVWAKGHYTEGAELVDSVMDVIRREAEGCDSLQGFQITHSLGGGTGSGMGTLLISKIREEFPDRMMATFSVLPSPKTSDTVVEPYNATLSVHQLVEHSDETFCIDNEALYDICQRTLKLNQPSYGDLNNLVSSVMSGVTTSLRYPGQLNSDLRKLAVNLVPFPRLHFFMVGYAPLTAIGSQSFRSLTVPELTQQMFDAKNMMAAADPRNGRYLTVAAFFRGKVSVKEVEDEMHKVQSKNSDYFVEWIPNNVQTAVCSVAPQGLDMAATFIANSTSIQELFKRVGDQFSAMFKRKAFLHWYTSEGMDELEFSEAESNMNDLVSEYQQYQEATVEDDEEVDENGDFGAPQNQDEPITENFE
Test: sedimentation velocity AUC
Conditions: chain shown with the change; [TOG1-TOG2] = 1.7 µM; [αβ] = 0.35 µM

other: sedimentation coefficient of the TOG1-TOG2:αβ-tubulin complex (s20,w): 7.1 S
B1: TOG1-TOG2(1-560) of Stu2p, P46675 W341A (protein)
chain: MSGEEEVDYTTLPLEERLTYKLWKARLEAYKELNQLFRNSVGDISRDDNIQIYWRDPTLFAQYITDSNVVAQEQAIVALNSLIDAFASSSLKNAHNITLISTWTPLLVEKGLTSSRATTKTQSMSCILSLCGLDTSITQSVELVIPFFEKKLPKLIAAAANCVYELMAAFGLTNVNVQTFLPELLKHVPQLAGHGDRNVRSQTMNLIVEIYKVTGNNSDLLEEILFKKLKPIQVKDLHKLFAKVGDEPSSSKMLFEWEKRELEKKRSQEEEARKRKSILSNDEGEYQIDKDGDTLMGMETDMPPSKQQSGVQIDTFSMLPEETILDKLPKDFQERITSSKAKDRVEALEEFWDSVLSQTKKLKSTSQNYSNLLGIYGHIIQKDANIQAVALAAQSVELICDKLKTPGFSKDYVSLVFTPLLDRTKEKKPSVIEAIRKALLTICKYYDPLASSGRNEDMLKDILEHMKHKTPQIRMECTQLFNASMKEEKDGYSTLQRYLKDEVVPIVIQIVNDTQPAIRTIGFESFAILIKIFGMNTFVKTLEHLDNLKRKKIEETVKTL
